Source: patent US12077566 (dated 2024)
Numbering of substitutions follows the chain as printed. Names may count otherwise.

T1: N-cadherin (UniProt P19022 160-906, limits assumed)
T1 construct: whole, on cells
T1 sequence (looked up): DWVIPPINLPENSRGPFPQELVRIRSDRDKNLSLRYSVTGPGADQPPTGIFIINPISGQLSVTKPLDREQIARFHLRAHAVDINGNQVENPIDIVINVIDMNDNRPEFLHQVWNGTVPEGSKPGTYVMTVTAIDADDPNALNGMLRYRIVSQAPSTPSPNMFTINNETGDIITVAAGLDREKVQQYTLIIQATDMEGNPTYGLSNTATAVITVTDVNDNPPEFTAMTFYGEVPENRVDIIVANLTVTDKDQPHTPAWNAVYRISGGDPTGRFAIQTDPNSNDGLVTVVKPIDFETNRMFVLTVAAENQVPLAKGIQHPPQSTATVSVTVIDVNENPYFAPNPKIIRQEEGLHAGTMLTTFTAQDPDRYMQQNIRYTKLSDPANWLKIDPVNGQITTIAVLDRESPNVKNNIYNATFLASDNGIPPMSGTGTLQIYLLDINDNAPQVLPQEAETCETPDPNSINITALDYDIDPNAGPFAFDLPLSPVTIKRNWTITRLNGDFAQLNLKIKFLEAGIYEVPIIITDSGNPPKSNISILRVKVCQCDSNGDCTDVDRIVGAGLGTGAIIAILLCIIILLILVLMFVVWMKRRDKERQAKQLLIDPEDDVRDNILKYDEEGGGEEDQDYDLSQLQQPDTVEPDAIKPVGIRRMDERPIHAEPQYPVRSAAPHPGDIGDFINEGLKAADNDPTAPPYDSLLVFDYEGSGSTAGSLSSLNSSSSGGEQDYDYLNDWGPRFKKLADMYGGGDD

B1: rLZ-8 (D70K) (other)
chain: MSDTALIFRLAWDVKKLSFDYTPNWGRGNPNNFIDTVTFPKVLTDKAYTYRVAVSGRNLGVKPSYAVESKGSQKVNFLEYNSGYGIADTNTIQVFVVDPDTNNDFIIAQWN
notes: Surface potential mutant of rLZ-8
B2: rLZ-8 (L17K/D70K) (other)
chain: B1 chain with L17K
notes: as for B1
B3: recombinant immunoregulatory protein of Ganoderma lucidum (rLZ-8) (other)
chain: B1 chain with K70D
notes: also called Lingzhi-8
B4: rLZ-8 (R9A) (other)
chain: B1 chain with R9A, K70D
notes: Alanine mutant of rLZ-8
B5: rLZ-8 (K16A/S18A/K41A/D45A) (other)
chain: B1 chain with K16A, S18A, K41A, D45A, K70D
notes: Alanine mutant of rLZ-8, made by the same fermentation and purification as rLZ-8
B6: rLZ-8 (L17K) (other)
chain: B1 chain with L17K, K70D
notes: as for B1
B7: rLZ-8 (K46E/K74E) (other)
chain: B1 chain with K46E, K70D, K74E
notes: Mutant of rLZ-8
B8: rLZ-8 (K16A/K41A) (other)
chain: B1 chain with K16A, K41A, K70D
notes: Alanine mutant of rLZ-8
B9: rLZ-8 (D20H) (other)
chain: B1 chain with D20H, K70D
notes: as for B1
B10: rLZ-8 (S18A) (other)
chain: B1 chain with S18A, K70D
notes: Alanine mutant of rLZ-8
B11: rLZ-8 (D45A) (other)
chain: B1 chain with D45A, K70D
notes: Alanine mutant of rLZ-8
B12: rLZ-8 (K41D/K46E/K74E) (other)
chain: B1 chain with K41D, K46E, K70D, K74E
notes: Mutant of rLZ-8

Molecular target: T2, EGFR extracellular domain (with an amino acid sequence of 25-645) (human, UniProt P00533 25-645)
T2 construct: range 25-645; Coupled on a CM5 chip; also called epidermal growth factor receptor extracellular domain; ligand (on the chip)
Assay: SPR, Biacore T200; EGFR extracellular domain on CM5 chip

| Binder | fold increase of affinity against rLZ-8 |
| --- | --- |
| B1 | 2.3 times |
| B2 | 6 times |

Molecular target: T3, LDLR (UniProt P01130 22-860, limits assumed)
T3 construct: whole, on cells
Assay: immunofluorescence co-localization on cells

T3 sequence (P01130 22-860 limits assumed): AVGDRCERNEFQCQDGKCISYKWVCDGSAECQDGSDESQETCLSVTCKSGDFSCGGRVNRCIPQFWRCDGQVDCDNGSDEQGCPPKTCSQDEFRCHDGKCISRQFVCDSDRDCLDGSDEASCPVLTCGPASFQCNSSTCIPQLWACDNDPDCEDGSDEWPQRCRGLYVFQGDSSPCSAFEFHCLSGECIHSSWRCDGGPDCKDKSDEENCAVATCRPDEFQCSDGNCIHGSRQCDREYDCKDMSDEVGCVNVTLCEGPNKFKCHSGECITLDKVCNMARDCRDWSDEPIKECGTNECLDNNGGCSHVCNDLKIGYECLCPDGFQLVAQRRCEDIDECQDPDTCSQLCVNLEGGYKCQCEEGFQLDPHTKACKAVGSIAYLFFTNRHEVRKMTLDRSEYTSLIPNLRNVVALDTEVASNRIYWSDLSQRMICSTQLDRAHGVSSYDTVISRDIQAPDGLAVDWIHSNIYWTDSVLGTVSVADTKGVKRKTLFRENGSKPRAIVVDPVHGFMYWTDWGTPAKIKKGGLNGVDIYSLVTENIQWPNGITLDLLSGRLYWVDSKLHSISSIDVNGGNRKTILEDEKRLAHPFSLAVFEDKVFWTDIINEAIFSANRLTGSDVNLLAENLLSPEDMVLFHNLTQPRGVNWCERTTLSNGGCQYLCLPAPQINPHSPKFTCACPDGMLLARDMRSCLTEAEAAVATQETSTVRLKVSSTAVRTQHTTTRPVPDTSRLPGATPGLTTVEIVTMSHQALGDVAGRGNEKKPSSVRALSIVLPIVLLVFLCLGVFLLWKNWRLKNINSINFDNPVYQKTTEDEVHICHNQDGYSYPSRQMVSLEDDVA

| Binder | binding result |
| --- | --- |
| B3 | no binding |

Molecular target: T1, N-cadherin
Assay: immunofluorescence co-localization on cells

| Binder | binding result |
| --- | --- |
| B3 | no binding |

Molecular target: T2, EGFR extracellular domain (with an …)
Assay: EGFR affinity test (SPR)

| Binder | fold increase of affinity equilibrium constant against rLZ-8 |
| --- | --- |
| B1 | 4 times |

Molecular target: T2, EGFR extracellular domain (with an …)
Assay: SPR, Biacore T200; EGFR extracellular domain on CM5 chip, rLZ-8 protein as analyte

| Binder | Kd | koff | kon |
| --- | --- | --- | --- |
| B4 | 8.63 nM | 0.000528 s⁻¹ | 61200 M⁻¹ s⁻¹ |
| B5 | 30600 nM | 0.00423 s⁻¹ | 139 M⁻¹ s⁻¹ |
| B6 | 7.49 nM | 7.56e-05 s⁻¹ | 10100 M⁻¹ s⁻¹ |
| B7 | 9.35 nM | 0.000614 s⁻¹ | 65700 M⁻¹ s⁻¹ |
| B1 | 2.25 nM | 0.000457 s⁻¹ | 203000 M⁻¹ s⁻¹ |
| B8 | 1240 nM | 0.000273 s⁻¹ | 220 M⁻¹ s⁻¹ |
| B9 | 7.36 nM | 0.000432 s⁻¹ | 58700 M⁻¹ s⁻¹ |
| B10 | 489 nM | 0.00182 s⁻¹ | 3720 M⁻¹ s⁻¹ |
| B11 | 620 nM | 0.000743 s⁻¹ | 1200 M⁻¹ s⁻¹ |
| B2 | 1.53 nM | 0.000329 s⁻¹ | 215000 M⁻¹ s⁻¹ |
| B12 | 12.2 nM | 0.000431 s⁻¹ | 35300 M⁻¹ s⁻¹ |
